Molecular target: all six recombinant human Tau isoforms
Assay: immunoaffinity purification on 13A6 beads, trypsin digestion and LC-MS/MS, with against without purification

percent recovery: 60 to 75%
B1: mouse monoclonal anti-Tau antibody clone 13A6 (antibody, V domains shown)
VH: EVQLQQSGAELVRPGASVKLPCTASGFNIKDDYMNWVMQRPERGLEWIGWIDPENGDTAYASKFQGKATMTADTSSNTAYLQLSSLTSEDTAVYYCTSGGRFDYWGQGTSLTVSS
VL: DVLMTQTPLSLPVSLGDQASISCRSSQSIVHSNGSTYLEWYLQKPGQSPKLLIYKVSNRFSGVPDRFSGSGSGTDFTLKINRVEAEDLGVYYCFQGSHVPWTFGGGTKLEIK

Reference: patent US20150253341A1
